From patent US20140227255A1 (Hoffmann-La Roche, published 2014)

Target: T1, Soluble human HER3 extracellular domain fused to Streptavidin Binding Protein (SBP) (human, UniProt P21860 20-643)
T1 construct: Order of the parts follows the printed name SBP-HER3 and is not otherwise stated; Used as HEK293 supernatant captured on streptavidin plates; also called SBP-HER3
Assay: ELISA, SBP-HER3 ECD captured on streptavidin plate; antibody concentration read from HER3 binding
Method: Soluble human HER3 extracellular domain fused to Streptavidin Binding Protein (SBP) was captured on a sreptavidine plate. […] For the standard coating, SBP-HER3 containing HEK293 supernatant was diluted (between 1:15 and 1:40) and incubated overnight at 2-80 C (25 μl per well). Intensive washing of the microtiter plate is necessary to remove remaining unbound SBP-HER3.
Antibodies according to the invention antibody were tested either undiluted or using a 12-step-dilution. 12.5 μl per well of each sample was incubated for 90 min at room temperature.

hu_HER3-ECD-ELISA c(µg/ml) | Binder
583 µg/mL | Mab 205.10.1 (antibody, V domains shown, Humanized anti-HER3 antibody; Only variable domains are tied to it) VH: QVQLVQSGAEVKKPGASVKVSCKASGYTFRSSYISWVRQAPGQGLEWMGWIYAGTGSPSYNQKLQGRVTMTTDTSTSTAYMELRSLRSDDTAVYYCARHRDYYSNSLTYWGQGTLVTVSS VL: DIVMTQSPDSLAVSLGERATINCKSSQSLLNSGNQKNYLTWYQQKPGQPPKLLIYWASTRESGVPDRFSGSGSGTDFTLTISSLQAEDVAVYYCQSDYSYPYTFGQGTKLEIK
505 µg/mL | Mab 205.10.3 (antibody, V domains shown, Humanized anti-HER3 antibody; Only variable domains are tied to it) VH: QVQLVQSGAEVKKPGASVKVSCKASGYTFRSSYISWVRQAPGQGLEWMGWIYAGTGSPSYNQKLQGRVTMTTDTSTSTAYMELRSLRSDDTAVYYCARHRDYYSNSLTYWGQGTLVTVSS VL: DIVMTQSPDSLAVSLGERATINCKSSQSLLNSGNQKNYLTWYQQKPGQPPKLLIYWASTRESGVPDRFSGSGSGTDFTLTISSLQAEDVSIYYCQSDYSYPYTFGQGTKLEIK
